Laboratory results: US20250347705, “Epitope-Specific hCG Binding Aptamers and Applications Thereof” (Rhodes University, published 2025)

Columns and labels:
[1] = biological target: bovine serum albumin (BSA) (UniProt P02769 P02769:25-607); assay: ELONA; BSA control beads, not different from No DNA
Description: Protein-modified magnetic beads were prepared by functionalising 1 mg of epoxy beads with either 10 μg of hCG or negative control proteins BSA or HSA (as in Example 2). Once functionalised, aliquots of the beads corresponding to 72 μg beads were added to individual wells of a 96-well plate which were pre-blocked with 3% w/v milk powder (in HMCKN-T buffer composed of 20 mM HEPES, 2 mM MgCl₂, 2 mM CaCl₂, 2 mM KCl, 150 mM NaCl, pH 7.4, supplemented with 0.002% v/v TWEEN 20.) Bead samples were prepared in triplicate.
A variation of the qPCR assay (FIG. 9) was employed using biotinylated aptamer sequences, creating a colourimetric ELONA (FIG. 10). During the colourimetric ELONA study, 5′ biotinylated full-length aptamer sequences were exposed to protein-modified beads—either hCG target or Bovine Serum Albumin (the bovine equivalent of HSA). After rinsing unbound aptamers from the beads, the colorimetric signal, proportional to the amount of biotinylated aptamer present, was generated by the addition of HRP-conjugated streptavidin and the subsequent HRP-catalysed oxidation of TMB.

[2] = biological target: human chorionic gonadotropin (hCG), alpha/beta heterodimer (Homo sapiens, UniProt P01215;P0DN86 P01215:25-116,P0DN86:21-165); assay: EMSA; very slight band decrease; ELONA signal similar to No DNA; details: tags: Abcam ab126652, isolated from human urine, >=50% pure; label: 5' biotin
human chorionic gonadotropin (hCG), alpha/beta heterodimer, sequence (P01215 25-116, chain 1 of 2, other chains not shown): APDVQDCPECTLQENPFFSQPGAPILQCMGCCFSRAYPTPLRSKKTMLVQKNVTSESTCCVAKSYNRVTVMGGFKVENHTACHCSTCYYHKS

bovine serum albumin (BSA), sequence (P02769 25-607, one chain of several): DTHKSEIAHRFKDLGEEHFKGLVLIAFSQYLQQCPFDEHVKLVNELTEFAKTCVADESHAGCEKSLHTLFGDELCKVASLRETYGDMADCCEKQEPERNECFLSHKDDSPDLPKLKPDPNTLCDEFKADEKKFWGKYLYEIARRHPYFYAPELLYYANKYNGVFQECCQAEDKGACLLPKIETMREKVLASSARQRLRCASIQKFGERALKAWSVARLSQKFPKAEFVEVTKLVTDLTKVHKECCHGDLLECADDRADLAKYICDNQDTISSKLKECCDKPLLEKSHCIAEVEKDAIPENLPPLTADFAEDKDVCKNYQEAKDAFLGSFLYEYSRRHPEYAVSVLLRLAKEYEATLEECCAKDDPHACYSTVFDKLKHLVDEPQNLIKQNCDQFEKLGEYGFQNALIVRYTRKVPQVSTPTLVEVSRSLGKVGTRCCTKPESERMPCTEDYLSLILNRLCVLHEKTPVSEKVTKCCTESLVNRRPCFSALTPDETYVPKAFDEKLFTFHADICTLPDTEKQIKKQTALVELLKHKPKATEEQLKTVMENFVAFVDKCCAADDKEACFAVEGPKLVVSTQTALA

B1: R6_5 truncated (ssDNA)
DNA: CAACTATTTCAGTATTCTAGAAAGGTCAAACCTTAGGAGC
binding result ([1]; label: 5' biotin): no binding

B2: R4_1 truncated (amplification artefact control) (ssDNA)
DNA: TGGACGAGGTATCTCGTATCATTGGCACCTAAAACTCCGT
binding result ([1]; label: 5' biotin): no binding
binding result [2]: no binding

B3: R4_64 truncated (ssDNA)
DNA: ACCTGCTGACATTGGGTGGGTCCTGAACCATTTTTAATCA
binding result ([1]; label: 5' biotin (3' biotin variant also used)): no binding

B4: R5_4 truncated (ssDNA)
DNA: CAAGGATCGGCTCAACTTAATATTGGAGGGATAGTGTTGG
binding result ([1]; label: 5' biotin): no binding
